Measured values published in the supplement of paper PMC10567573.

B1: APBB1IP (parent)
chain: SQVSMWDQRWQDHQPLLPITDVP

Variants of: B1
Test: protein stability index of a GFP-peptide fusion (GPS, HEK-293T) (PSI 1-6); higher = more stable
Details: c terminus: native
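Also: lentivirally expressed fusions sorted by FACS into six bins by GFP to DsRed ratio, PSI derived from sequencing read proportions per bin multiplied by bin number.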

Q: With SQVYMWDQRWQDHQPLLPITDVP [S4Y] as the variant, how does the protein stability index read?
A: 2.42

Q: For SQVLMWDQRWQDHQPLLPITDVP [S4L], which protein stability index is on record?
A: 2.02

Q: With SQVAMWDQRWQDHQPLLPITDVP [S4A] as the variant, how does the protein stability index read?
A: 2.84

Q: With SQVVMWDQRWQDHQPLLPITDVP [S4V] as the variant, how does the protein stability index read?
A: 2.49

Q: With SQVDMWDQRWQDHQPLLPITDVP [S4D] as the variant, how does the protein stability index read?
A: 2.58

Q: For SQVKMWDQRWQDHQPLLPITDVP [S4K], which protein stability index is on record?
A: 2.15

Q: Which protein stability index does the source give for SQVNMWDQRWQDHQPLLPITDVP [S4N] here?
A: 2.92

Q: For SQVIMWDQRWQDHQPLLPITDVP [S4I], which protein stability index is on record?
A: 2.42

Q: For SQVPMWDQRWQDHQPLLPITDVP [S4P], which protein stability index is on record?
A: 2.73

Q: For SQVHMWDQRWQDHQPLLPITDVP [S4H], which protein stability index is on record?
A: 1.74

Q: Which protein stability index does the source give for SQVMMWDQRWQDHQPLLPITDVP [S4M] here?
A: 2.57

Q: With SQVFMWDQRWQDHQPLLPITDVP [S4F] as the variant, how does the protein stability index read?
A: 1.98

Q: With SQVTMWDQRWQDHQPLLPITDVP [S4T] as the variant, how does the protein stability index read?
A: 2.23

Q: For SQVWMWDQRWQDHQPLLPITDVP [S4W], which protein stability index is on record?
A: 2.01

Q: With SQVQMWDQRWQDHQPLLPITDVP [S4Q] as the variant, how does the protein stability index read?
A: 4.05

Q: With SQVEMWDQRWQDHQPLLPITDVP [S4E] as the variant, how does the protein stability index read?
A: 3.8

Q: For SQVCMWDQRWQDHQPLLPITDVP [S4C], which protein stability index is on record?
A: 1.95

Q: Which protein stability index does the source give for SQVSMDDQRWQDHQPLLPITDVP [W6D] here?
A: 4.13

Q: Which protein stability index does the source give for SQVSMHDQRWQDHQPLLPITDVP [W6H] here?
A: 2.51

Q: For SQVSMADQRWQDHQPLLPITDVP [W6A], which protein stability index is on record?
A: 3.27

Q: For SQVSMNDQRWQDHQPLLPITDVP [W6N], which protein stability index is on record?
A: 3.52

Q: Which protein stability index does the source give for SQVSMTDQRWQDHQPLLPITDVP [W6T] here?
A: 4.02

Q: For SQVSMQDQRWQDHQPLLPITDVP [W6Q], which protein stability index is on record?
A: 3.48

Q: For SQVSMCDQRWQDHQPLLPITDVP [W6C], which protein stability index is on record?
A: 3.04

Q: With SQVSMGDQRWQDHQPLLPITDVP [W6G] as the variant, how does the protein stability index read?
A: 2.95

Q: For SQVSMIDQRWQDHQPLLPITDVP [W6I], which protein stability index is on record?
A: 2.56

Q: Which protein stability index does the source give for SQVSMRDQRWQDHQPLLPITDVP [W6R] here?
A: 3.29

Q: Which protein stability index does the source give for SQVSMYDQRWQDHQPLLPITDVP [W6Y] here?
A: 2.09

Q: For SQVSMFDQRWQDHQPLLPITDVP [W6F], which protein stability index is on record?
A: 2.55

Q: Which protein stability index does the source give for SQVSMEDQRWQDHQPLLPITDVP [W6E] here?
A: 4.03

Q: Which protein stability index does the source give for SQVSMSDQRWQDHQPLLPITDVP [W6S] here?
A: 3.08

Q: With SQVSMKDQRWQDHQPLLPITDVP [W6K] as the variant, how does the protein stability index read?
A: 3.24

Q: Which protein stability index does the source give for SQVSMMDQRWQDHQPLLPITDVP [W6M] here?
A: 2.65

Q: Which protein stability index does the source give for SQVSMPDQRWQDHQPLLPITDVP [W6P] here?
A: 3.18

Q: Which protein stability index does the source give for SQVSMVDQRWQDHQPLLPITDVP [W6V] here?
A: 3.01

Q: For SQVSMLDQRWQDHQPLLPITDVP [W6L], which protein stability index is on record?
A: 3.09

Q: Which protein stability index does the source give for SQVSMWDRRWQDHQPLLPITDVP [Q8R] here?
A: 1.78

Q: With SQVSMWDPRWQDHQPLLPITDVP [Q8P] as the variant, how does the protein stability index read?
A: 2.13

Q: With SQVSMWDSRWQDHQPLLPITDVP [Q8S] as the variant, how does the protein stability index read?
A: 2.28

Q: Which protein stability index does the source give for SQVSMWDARWQDHQPLLPITDVP [Q8A] here?
A: 2.03

Q: With SQVSMWDLRWQDHQPLLPITDVP [Q8L] as the variant, how does the protein stability index read?
A: 1.86

Q: For SQVSMWDMRWQDHQPLLPITDVP [Q8M], which protein stability index is on record?
A: 1.39

Q: For SQVSMWDFRWQDHQPLLPITDVP [Q8F], which protein stability index is on record?
A: 1.73

Q: For SQVSMWDGRWQDHQPLLPITDVP [Q8G], which protein stability index is on record?
A: 2.27

Q: With SQVSMWDHRWQDHQPLLPITDVP [Q8H] as the variant, how does the protein stability index read?
A: 2.16

Q: Which protein stability index does the source give for SQVSMWDNRWQDHQPLLPITDVP [Q8N] here?
A: 2.68

Q: Which protein stability index does the source give for SQVSMWDIRWQDHQPLLPITDVP [Q8I] here?
A: 1.94

Q: Which protein stability index does the source give for SQVSMWDERWQDHQPLLPITDVP [Q8E] here?
A: 2.6

Q: Which protein stability index does the source give for SQVSMWDDRWQDHQPLLPITDVP [Q8D] here?
A: 2.35

Q: With SQVSMWDCRWQDHQPLLPITDVP [Q8C] as the variant, how does the protein stability index read?
A: 1.37

Q: For SQVSMWDKRWQDHQPLLPITDVP [Q8K], which protein stability index is on record?
A: 2.68

Q: Which protein stability index does the source give for SQVSMWTQRWQDHQPLLPITDVP [D7T] here?
A: 2.27

Q: With SQVSMWAQRWQDHQPLLPITDVP [D7A] as the variant, how does the protein stability index read?
A: 3.25

Q: With SQVSMWHQRWQDHQPLLPITDVP [D7H] as the variant, how does the protein stability index read?
A: 1.68

Q: With SQVSMWFQRWQDHQPLLPITDVP [D7F] as the variant, how does the protein stability index read?
A: 1.23

Q: With SQVSMWQQRWQDHQPLLPITDVP [D7Q] as the variant, how does the protein stability index read?
A: 2.44

Q: Which protein stability index does the source give for SQVSMWSQRWQDHQPLLPITDVP [D7S] here?
A: 1.61

Q: With SQVSMWNQRWQDHQPLLPITDVP [D7N] as the variant, how does the protein stability index read?
A: 2.44

Q: For SQVSMWYQRWQDHQPLLPITDVP [D7Y], which protein stability index is on record?
A: 2

Q: Which protein stability index does the source give for SQVSMWIQRWQDHQPLLPITDVP [D7I] here?
A: 1.04

Q: Which protein stability index does the source give for SQVSMWLQRWQDHQPLLPITDVP [D7L] here?
A: 1.72

Q: For SQVSMWCQRWQDHQPLLPITDVP [D7C], which protein stability index is on record?
A: 2.37

Q: For SQVSMWKQRWQDHQPLLPITDVP [D7K], which protein stability index is on record?
A: 1.46

Q: Which protein stability index does the source give for SQVSMWPQRWQDHQPLLPITDVP [D7P] here?
A: 1.96

Q: With SQVSMWRQRWQDHQPLLPITDVP [D7R] as the variant, how does the protein stability index read?
A: 1.77

Q: Which protein stability index does the source give for SQVSMWGQRWQDHQPLLPITDVP [D7G] here?
A: 1.49

Q: For SQVSMWMQRWQDHQPLLPITDVP [D7M], which protein stability index is on record?
A: 1.44

Q: For SQVSMWWQRWQDHQPLLPITDVP [D7W], which protein stability index is on record?
A: 1.49

Q: Which protein stability index does the source give for SQVSMWEQRWQDHQPLLPITDVP [D7E] here?
A: 2.85

Q: For YQVSMWDQRWQDHQPLLPITDVP [S1Y], which protein stability index is on record?
A: 4

Q: With IQVSMWDQRWQDHQPLLPITDVP [S1I] as the variant, how does the protein stability index read?
A: 1.56

Q: For WQVSMWDQRWQDHQPLLPITDVP [S1W], which protein stability index is on record?
A: 3.14

Q: For EQVSMWDQRWQDHQPLLPITDVP [S1E], which protein stability index is on record?
A: 3.87

Q: For VQVSMWDQRWQDHQPLLPITDVP [S1V], which protein stability index is on record?
A: 2.85

Q: With CQVSMWDQRWQDHQPLLPITDVP [S1C] as the variant, how does the protein stability index read?
A: 2.69

Q: For QQVSMWDQRWQDHQPLLPITDVP [S1Q], which protein stability index is on record?
A: 2.36

Q: Which protein stability index does the source give for PQVSMWDQRWQDHQPLLPITDVP [S1P] here?
A: 2.94

Q: Which protein stability index does the source give for TQVSMWDQRWQDHQPLLPITDVP [S1T] here?
A: 2.04

Q: Which protein stability index does the source give for RQVSMWDQRWQDHQPLLPITDVP [S1R] here?
A: 2.23

Q: For NQVSMWDQRWQDHQPLLPITDVP [S1N], which protein stability index is on record?
A: 2.19

Q: With FQVSMWDQRWQDHQPLLPITDVP [S1F] as the variant, how does the protein stability index read?
A: 1.92

Q: For KQVSMWDQRWQDHQPLLPITDVP [S1K], which protein stability index is on record?
A: 1.76

Q: For HQVSMWDQRWQDHQPLLPITDVP [S1H], which protein stability index is on record?
A: 2.46

Q: With GQVSMWDQRWQDHQPLLPITDVP [S1G] as the variant, how does the protein stability index read?
A: 2.03

Q: Which protein stability index does the source give for LQVSMWDQRWQDHQPLLPITDVP [S1L] here?
A: 1.36

Q: For MQVSMWDQRWQDHQPLLPITDVP [S1M], which protein stability index is on record?
A: 1.96

Q: With DQVSMWDQRWQDHQPLLPITDVP [S1D] as the variant, how does the protein stability index read?
A: 2.25

Q: Which protein stability index does the source give for SQNSMWDQRWQDHQPLLPITDVP [V3N] here?
A: 2.49

Q: Which protein stability index does the source give for SQRSMWDQRWQDHQPLLPITDVP [V3R] here?
A: 2.43

Q: For SQQSMWDQRWQDHQPLLPITDVP [V3Q], which protein stability index is on record?
A: 3.47

Q: With SQHSMWDQRWQDHQPLLPITDVP [V3H] as the variant, how does the protein stability index read?
A: 3.28

Q: Which protein stability index does the source give for SQWSMWDQRWQDHQPLLPITDVP [V3W] here?
A: 1.64

Q: Which protein stability index does the source give for SQMSMWDQRWQDHQPLLPITDVP [V3M] here?
A: 2.83

Q: For SQESMWDQRWQDHQPLLPITDVP [V3E], which protein stability index is on record?
A: 2.9

Q: Which protein stability index does the source give for SQKSMWDQRWQDHQPLLPITDVP [V3K] here?
A: 2.34

Q: Which protein stability index does the source give for SQCSMWDQRWQDHQPLLPITDVP [V3C] here?
A: 1.91
